In publication PMC4731272:
Where a chain is given by its changes, count along the chain named.

B1: CmCG DNA (dsDNA)
DNA 1: GAATCCGGATTC
DNA 2: GAATCCGGATTC
modifications: 5-methyl-dC at position 6 of both strands
B2: CcaCG DNA (dsDNA)
DNA 1: GAATCCGGATTC
DNA 2: GAATCCGGATTC
modifications: 5-carboxyl-dC at position 6 of both strands
B3: CfCG DNA (dsDNA)
DNA 1: GAATCCGGATTC
DNA 2: GAATCCGGATTC
modifications: 5-formyl-dC at position 6 of both strands
B4: CCG DNA (dsDNA)
DNA 1: GAATCCGGATTC
DNA 2: GAATCCGGATTC
B5: ChmCG DNA (dsDNA)
DNA 1: GAATCCGGATTC
DNA 2: GAATCCGGATTC
modifications: 5-hydroxymethyl-dC at position 6 of both strands
B6: hemi-CcaCG DNA (dsDNA)
DNA 1: GAATCCGGATTC
DNA 2: GAATCCGGATTC
modifications: 5-carboxyl-dC at position 6 of one strand only

What was measured:
Assay in all cases: ITC
mTet3-CXXC = target: T1, mTet3-CXXC (Mus musculus (mouse), UniProt Q8BG87 51-96)
T1 chain: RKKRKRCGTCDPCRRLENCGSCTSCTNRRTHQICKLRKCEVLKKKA

XtTet3-CXXC = target: T2, XtTet3-CXXC (Xenopus tropicalis, UniProt A0JP82 58-99)
T2 chain: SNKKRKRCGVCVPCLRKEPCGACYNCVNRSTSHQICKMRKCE

mTet3-CXXC T80A = target: T3, mTet3-CXXC T80A (Mus musculus (mouse), UniProt Q8BG87 51-96, T80A)
T3 chain: T1 chain with T30A

mTet3-CXXC Q82A = target: T4, mTet3-CXXC Q82A (Mus musculus (mouse), UniProt Q8BG87 51-96, Q82A)
T4 chain: T1 chain with Q32A

mTet3-CXXC H81A = target: T5, mTet3-CXXC H81A (Mus musculus (mouse), UniProt Q8BG87 51-96, H81A)
T5 chain: T1 chain with H31A

mTet3-CXXC K88A = target: T6, mTet3-CXXC K88A (Mus musculus (mouse), UniProt Q8BG87 51-96, K88A)
T6 chain: T1 chain with K38A

Binder | Kd (mTet3-CXXC) [nM] | Kd (XtTet3-CXXC) [nM] | Kd (mTet3-CXXC T80A) [nM] | Kd (mTet3-CXXC Q82A) [nM] | binding result (mTet3-CXXC H81A) | Kd (mTet3-CXXC K88A) [nM]
B1 | 5590 | 9000 |  |  |  | 
B2 | 560 | 1300 | 910 | 970 | no binding | 
B3 | 6130 | 10400 |  |  |  | 
B4 | 1880 | 2580 | 1790 | 2380 | no binding | 5320
B5 |  | 18600 |  |  |  | 
B6 | 1570 |  |  |  |  | 
